The values below come from patent publication US20100297124A1 (published 2010).

The target in test [1] is T1, neuropilin 1 (NRP1) on human umbilical vein endothelial cells (HUVEC) (human, UniProt O14786 22-923).
T1 construct: whole, on cells; also called cell-surface NRP1
Nature of the test: flow cytometry, biotinylated VEGF165 (100 ng/ml) on HUVEC, avidin-FITC detection. The method, then:
(§1) The results shown in FIGS. 8-12 indicate that oligo(G) can promote the internalization of NRP1 by bridging NRP1 to the scavenger SREC-I receptor on endothelial cells. This should disrupt the binding of the NRP1 ligands Sema3A and VEGF165 to endothelial cells due to receptor internalization. To verify this hypothesis, HUVEC were incubated at 37° C. for 1 hour with or without phosphorothioate G18 (sG18) (4 or 16 μg/ml). Subsequently, the cells were washed and binding of Sema3A/Fc and biotin-labeled VEGF165 tested after incubation at 4° C. for 1 hour. Bound Sema3A/Fc was detected by flow cytometry after staining with FITC-conjugated goat anti-human IgG-Fc; bound VEGF165 was detected by flow cytometry after staining with avidin-FITC.
In general terms: A flow cytometer gives signals particle by particle.

Test [2] addresses T1, neuropilin 1 (NRP1) on human umbilical …. The experiment in a line: flow cytometry, Sema3A/Fc (2 µg/ml) on HUVEC, anti-human IgG Fc detection. The method, then: as §1

T1 sequence (O14786 22-923): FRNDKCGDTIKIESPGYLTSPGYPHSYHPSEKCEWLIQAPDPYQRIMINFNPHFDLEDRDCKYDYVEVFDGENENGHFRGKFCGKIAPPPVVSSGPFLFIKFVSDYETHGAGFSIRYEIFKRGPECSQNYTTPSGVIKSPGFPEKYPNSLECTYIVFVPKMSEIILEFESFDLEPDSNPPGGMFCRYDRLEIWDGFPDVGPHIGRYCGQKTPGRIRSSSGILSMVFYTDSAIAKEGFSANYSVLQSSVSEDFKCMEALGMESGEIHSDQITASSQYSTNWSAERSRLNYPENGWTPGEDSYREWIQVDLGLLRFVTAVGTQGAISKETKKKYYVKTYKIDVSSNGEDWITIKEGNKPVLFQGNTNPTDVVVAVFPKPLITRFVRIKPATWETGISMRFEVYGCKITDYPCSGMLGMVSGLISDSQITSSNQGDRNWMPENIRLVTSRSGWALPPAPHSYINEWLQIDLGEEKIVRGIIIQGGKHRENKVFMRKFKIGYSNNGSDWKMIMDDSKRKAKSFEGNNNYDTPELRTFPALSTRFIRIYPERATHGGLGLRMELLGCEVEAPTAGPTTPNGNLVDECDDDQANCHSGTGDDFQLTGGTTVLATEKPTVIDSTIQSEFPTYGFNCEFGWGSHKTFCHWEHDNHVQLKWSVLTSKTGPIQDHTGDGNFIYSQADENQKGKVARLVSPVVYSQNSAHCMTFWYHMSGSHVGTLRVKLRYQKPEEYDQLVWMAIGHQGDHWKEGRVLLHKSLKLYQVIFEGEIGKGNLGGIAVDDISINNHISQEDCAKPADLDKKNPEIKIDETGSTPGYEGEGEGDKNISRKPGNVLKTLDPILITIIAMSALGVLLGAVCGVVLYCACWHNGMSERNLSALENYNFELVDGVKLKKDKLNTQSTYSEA

B1: Recombinant human VEGF165 (biotinylated) (ligand, UniProt P15692-4 27-191, looked up)
chain: APMAEGGGQNHHEVVKFMDVYQRSYCHPIETLVDIFQEYPDEIEYIFKPSCVPLMRCGGCCNDEGLECVPTEESNITMQIMRIKPHQGQHIGEMSFLQHNKCECRPKKDRARQENPCGPCSERRKHLFVQDPQTCKCSCKNTDSRCKARQLELNERTCRCDKPRR
modifications: biotinylated (sites not given)
notes: Commercial reagent (R&D Systems); also called biotin-VEGF165; biotin-labeled VEGF165
With B1, the binding result in test [1] was “binds”.

B2: human Sema3A/Fc (Fc fusion, UniProt Q14563 26-771, looked up)
chain: KNNVPRLKLSYKEMLESNNVITFNGLANSSSYHTFLLDEERSRLYVGAKDHIFSFDLVNIKDFQKIVWPVSYTRRDECKWAGKDILKECANFIKVLKAYNQTHLYACGTGAFHPICTYIEIGHHPEDNIFKLENSHFENGRGKSPYDPKLLTASLLIDGELYSGTAADFMGRDFAIFRTLGHHHPIRTEQHDSRWLNDPKFISAHLISESDNPEDDKVYFFFRENAIDGEHSGKATHARIGQICKNDFGGHRSLVNKWTTFLKARLICSVPGPNGIDTHFDELQDVFLMNFKDPKNPVVYGVFTTSSNIFKGSAVCMYSMSDVRRVFLGPYAHRDGPNYQWVPYQGRVPYPRPGTCPSKTFGGFDSTKDLPDDVITFARSHPAMYNPVFPMNNRPIVIKTDVNYQFTQIVVDRVDAEDGQYDVMFIGTDVGTVLKVVSIPKETWYDLEEVLLEEMTVFREPTAISAMELSTKQQQLYIGSTAGVAQLPLHRCDIYGKACAECCLARDPYCAWDGSACSRYFPTAKRRTRRQDIRNGDPLTHCSDLHHDNHHGHSPEERIIYGVENSSTFLECSPKSQRALVYWQFQRRNEERKEEIRVDDHIIRTDQGLLLRSLQQKDSGNYLCHAVEHGFIQTLLKVTLEVIDTEHLEELLHKDDDGDGSKTKEMSNSMTPSQKVWYRDFMQLINHPNLNTMDEFCEQVWKRDRKQRRQRPGHTPGNSNKWKHLQENKKGRNRRTHEFERAPRSV
notes: Commercial reagent (R&D Systems); not shown: Fc portion
B2: the binding result in test [2] is on record as “binds”.
